From IntAct's records for PubMed 30956113

B1: Transmembrane 4 L6 family member 5 (Homo sapiens), O14894 (parent)
chain: MCTGKCARCVGLSLITLCLVCIVANALLLVPNGETSWTNTNHLSLQVWLMGGFIGGGLMVLCPGIAAVRAGGKGCCGAGCCGNRCRMLRSVFSSAFGVLGAIYCLSVSGAGLRNGPRCLMNGEWGYHFEDTAGAYLLNRTLWDRCEAPPRVVPWNVTLFSLLVAASCLEIVLCGIQLVNATIGVFCGDCRKKQDTPH
partner: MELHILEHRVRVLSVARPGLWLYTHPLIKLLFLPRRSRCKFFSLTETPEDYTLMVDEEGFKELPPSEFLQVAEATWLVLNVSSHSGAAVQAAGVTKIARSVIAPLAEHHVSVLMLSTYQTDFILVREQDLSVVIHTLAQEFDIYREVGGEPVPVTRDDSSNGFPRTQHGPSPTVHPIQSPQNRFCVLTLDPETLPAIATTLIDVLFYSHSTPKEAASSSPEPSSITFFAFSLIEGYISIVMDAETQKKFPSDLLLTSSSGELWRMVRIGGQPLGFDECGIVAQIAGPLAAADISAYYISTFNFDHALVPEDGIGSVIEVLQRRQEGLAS
B2: Transmembrane 4 L6 family member 5 (Homo sapiens), O14894 (parent)
chain: B1 chain
partner: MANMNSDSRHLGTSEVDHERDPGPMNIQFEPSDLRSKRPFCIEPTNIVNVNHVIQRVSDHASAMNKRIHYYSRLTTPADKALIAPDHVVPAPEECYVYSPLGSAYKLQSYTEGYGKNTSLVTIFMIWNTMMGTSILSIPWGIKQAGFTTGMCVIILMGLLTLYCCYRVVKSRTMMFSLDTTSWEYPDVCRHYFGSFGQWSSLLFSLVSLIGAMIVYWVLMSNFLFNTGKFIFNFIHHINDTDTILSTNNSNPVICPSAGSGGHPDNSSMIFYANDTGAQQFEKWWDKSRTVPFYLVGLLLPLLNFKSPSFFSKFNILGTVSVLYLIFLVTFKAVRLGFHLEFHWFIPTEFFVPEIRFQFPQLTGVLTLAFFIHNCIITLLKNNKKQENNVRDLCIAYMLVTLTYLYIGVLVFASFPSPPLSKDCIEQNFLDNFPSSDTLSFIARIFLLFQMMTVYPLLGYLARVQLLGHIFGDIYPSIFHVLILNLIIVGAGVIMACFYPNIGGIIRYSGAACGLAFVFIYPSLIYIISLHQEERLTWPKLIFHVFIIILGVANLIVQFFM
B3: Transmembrane 4 L6 family member 5 (Homo sapiens), O14894 (parent)
chain: B1 chain

Variants of: B1
Conditions: with cast1_human CASTOR1, Q8WTX7

| effect of a mutation on the interaction | Variant |
| --- | --- |
| with no effect | MCTGKCARCVGLSLITLCLVCIVANALLLVPNGETSWTNTNHLSLQVWLMGGFIGGGLMVLCPGIAAVRAGGKGCCGAGCCGNRCRMLRSVFSSAFGVLGAIYCLSVSGAGLRNGPRCLMNGEAGYHFEDTAGAYLLNRTLWDRCEAPPRVVPWNVTLFSLLVAASCLEIVLCGIQLVNATIGVFCGDCRKKQDTPH [W124A] |

Variants of: B2
Conditions: with SLC38A9, Q8NBW4

| effect of a mutation on the interaction | Variant |
| --- | --- |
| with no effect | MCTGKCARCVGLSLITLCLVCIVANALLLVPNGETSWTNTNHLSLQVWLMGGFIGGGLMVLCPGIAAVRAGGKGCCGAGCCGNRCRMLRSVFSSAFGVLGAIYCLSVSGAGLRNGPRCLMNGEAGYHFEDTAGAYLLNRTLWDRCEAPPRVVPWNVTLFSLLVAASCLEIVLCGIQLVNATIGVFCGDCRKKQDTPH [W124A] |

Variants of: B3
Conditions: with mtor_human MTOR

| effect of a mutation on the interaction | Variant |
| --- | --- |
| with no effect | Y126S |
| with no effect | W124A |
| with no effect | N138A |
